Laboratory results reported in the supplement of paper PMC11780869.

System: Bacillus subtilis
Experiment: cleaved RNA product abundance (RNA/gDNA barcode ratio) relative to median wild-type variant (ratio to wild type); higher = more accumulation of the downstream cleavage product
Conditions: experiment (reporter, strain, medium): exp 8a: truncated aprE reporter, strain BJT201 with 2% xylose (RNase J1 expressed); cleavage site: glnRA (positions -5 to +31 mutated)
Summary of the method: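 Cleaved product abundance was measured with barcoded reporter mRNAs (truncated aprE or tetM) carrying mutagenized RNase Y cleavage-site windows in the B. subtilis chromosome. Cultures in LB at 37°C grew from OD600 0.0003 to 0.3. Gel-selected cleaved RNA was reverse transcribed and barcode-sequenced with genomic DNA barcodes, and the RNA:gDNA barcode ratio per construct was scaled to the median construct bearing the unmutated site.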

Going from “CGACATGTCCCGCTTCTTTCATTATTCCGTTAACAACAGTTTTGCTATATACATTTACCTTTTAAGAGGAGGAAT” to “CGACATGTCCCGCTTCTTTCATTATTCCGTTAACAACTATTTTGCTATATACATTTACCTTTTAAGAGGAGGAAT”, the “cleaved RNA product abundance” value rises from 0.271 to 0.283.

Going from “CGACATGTCCCGCTTCTTTCATTATTCCGTTAACAACTGTTTTACTATATACATTTACCTTTTAAGAGGAGGAAT” to “CGACATGTCCCGCTTCTTTCATTATTCCGTTAACAACTGTTTTGCTATATACATATACCTTTTAAGAGGAGGAAT”, the “cleaved RNA product abundance” value falls from 0.257 to 0.239.

First: CGACATGTCCCGCTTCTTTCATTATTCCGTTAACAACTGTTTTGCTATATACATTTACCTTTTAAGAGGAGGAAT
Second: CGACATGTCCCGCTTCTTTCATTATTCCGTTAACAACTGTTTTGCTATATACATTTATCTTTTAAGAGGAGGAAT
The “cleaved RNA product abundance” value of the first is higher: 0.312 for the first, 0.27 for the second.

First: CGACATGTCCCGCTTCTTTCATTATTCCGTTAACAACTGTTTTGCTATATACTTTTACCTTTTAAGAGGAGGAAT
Second: CGACATGTCCCGCTTCTTTCATTATTCCGTTAACAACTGTTTTGCTATATTCATTTACCTTTTAAGAGGAGGAAT
The “cleaved RNA product abundance” value of the first is higher: 0.273 for the first, 0.155 for the second.

Compared with “CGACATGTCCCGCTTCTTTCATTATTCCGTTACCAAATGTTTTGCTATATACATTTACCTTTTAAGAGGAGGAAT”, “CGACATGTCCCGCTTCTTTCATTATTCCGTTACCAACTGTTTTGCTATATACATTTACCTTTTAAGAGGAGGAAT” is higher in “cleaved RNA product abundance” value: 0.265 for the first, 0.289 for the second.

Going from “CGACATGTCCCGCTTCTTTCATTATTCCGTTAGAAACTGTTTTGCTATATACACTTACCTTTTAAGAGGAGGAAT” to “CGACATGTCCCGCTTCTTTCATTATTCCGTTAGAAACTGTTTTGCTATATACATTTACCTTTTAAGAGGAGGAAT”, the “cleaved RNA product abundance” value rises from 0.302 to 0.309.

Going from “CGACATGTCCCGCTTCTTTCATTATTCCGTTAGCAAATGTTGTGCTATATACATTTACCTTTTAAGAGGAGGAAT” to “CGACATGTCCCGCTTCTTTCATTATTCCGTTAGCAAATGTTTTGCTATATACATTTACCTTTTAAGAGGAGGAAT”, the “cleaved RNA product abundance” value rises from 0.444 to 1.75.

Going from “CGACATGTCCCGCTTCTTTCATTATTCCGTTAGCAACAGTTTTGCTATATACATTTACCTTTTAAGAGGAGGAAT” to “CGACATGTCCCGCTTCTTTCATTATTCCGTTAGCAACGGTTTTGCTATATACATTTACCTTTTAAGAGGAGGAAT”, the “cleaved RNA product abundance” value falls from 1.12 to 0.56.

Compared with “CGACATGTCCCGCTTCTTTCATTATTCCGTTAGCAACTATTTTGCTATATACATTTACCTTTTAAGAGGAGGAAT”, “CGACATGTCCCGCTTCTTTCATTATTCCGTTAGCAACTATTTTTCTATATACATTTACCTTTTAAGAGGAGGAAT” is lower in “cleaved RNA product abundance” value: 1.91 for the first, 0.956 for the second.

Compared with “CGACATGTCCCGCTTCTTTCATTATTCCGTTAGCAACTCTTTTGCTAAATACATTTACCTTTTAAGAGGAGGAAT”, “CGACATGTCCCGCTTCTTTCATTATTCCGTTAGCAACTCTTTTGCTATATACATTTACCTTTTAAGAGGAGGAAT” is higher in “cleaved RNA product abundance” value: 0.422 for the first, 2.3 for the second.

First: CGACATGTCCCGCTTCTTTCATTATTCCGTTAGCAACTGCTTTGCTATATACATTTACCTTTTAAGAGGAGGAAT
Second: CGACATGTCCCGCTTCTTTCATTATTCCGTTAGCAACTGGTTTGCTATATACATTTACCTTTTAAGAGGAGGAAT
The “cleaved RNA product abundance” value of the first is lower: 0.681 for the first, 1.54 for the second.

First: CGACATGTCCCGCTTCTTTCATTATTCCGTTAGCAACTGTATTGCTATATACATTTACCTTTTAAGAGGAGGAAT
Second: CGACATGTCCCGCTTCTTTCATTATTCCGTTAGCAACTGTCTTGCTATATACATTTACCTTTTAAGAGGAGGAAT
The “cleaved RNA product abundance” value of the first is higher: 1.36 for the first, 1.31 for the second.

Compared with “CGACATGTCCCGCTTCTTTCATTATTCCGTTAGCAACTGTGTTGCTATATACATTTACCTTTTAAGAGGAGGAAT”, “CGACATGTCCCGCTTCTTTCATTATTCCGTTAGCAACTGTTATGCTATATACATTTACCTTTTAAGAGGAGGAAT” is higher in “cleaved RNA product abundance” value: 0.7 for the first, 0.76 for the second.

First: CGACATGTCCCGCTTCTTTCATTATTCCGTTAGCAACTGTTCTGCTATATACATTTACCTTTTAAGAGGAGGAAT
Second: CGACATGTCCCGCTTCTTTCATTATTCCGTTAGCAACTGTTGTGCTATATACATTTACCTTTTAAGAGGAGGAAT
The “cleaved RNA product abundance” value of the first is lower: 0.551 for the first, 0.941 for the second.

Compared with “CGACATGTCCCGCTTCTTTCATTATTCCGTTAGCAACTGTTTAGCTATATACATTTACCTTTTAAGAGGAGGAAT”, “CGACATGTCCCGCTTCTTTCATTATTCCGTTAGCAACTGTTTAGGTATATACATTTACCTTTTAAGAGGAGGAAT” is lower in “cleaved RNA product abundance” value: 0.706 for the first, 0.443 for the second.

First: CGACATGTCCCGCTTCTTTCATTATTCCGTTAGCAACTGTTTCGCTATATACATTTACCTTTTAAGAGGAGGAAT
Second: CGACATGTCCCGCTTCTTTCATTATTCCGTTAGCAACTGTTTGGCTATATACATTTACCTTTTAAGAGGAGGAAT
The “cleaved RNA product abundance” value of the first is lower: 0.509 for the first, 0.949 for the second.

Compared with “CGACATGTCCCGCTTCTTTCATTATTCCGTTAGCAACTGTTTTACTATATACATATACCTTTTAAGAGGAGGAAT”, “CGACATGTCCCGCTTCTTTCATTATTCCGTTAGCAACTGTTTTACTATATACATTTACCTTTTAAGAGGAGGAAT” is higher in “cleaved RNA product abundance” value: 0.607 for the first, 0.812 for the second.

Going from “CGACATGTCCCGCTTCTTTCATTATTCCGTTAGCAACTGTTTTCATAAATACATTTACCTTTTAAGAGGAGGAAT” to “CGACATGTCCCGCTTCTTTCATTATTCCGTTAGCAACTGTTTTCCTATATACATTTACCTTTTAAGAGGAGGAAT”, the “cleaved RNA product abundance” value rises from 0.375 to 0.524.

Going from “CGACATGTCCCGCTTCTTTCATTATTCCGTTAGCAACTGTTTTGATATATACATTTACCTTTTAAGAGGAGGAAT” to “CGACATGTCCCGCTTCTTTCATTATTCCGTTAGCAACTGTTTTGCAATATACATTTACCTTTTAAGAGGAGGAAT”, the “cleaved RNA product abundance” value rises from 0.502 to 0.626.

First: CGACATGTCCCGCTTCTTTCATTATTCCGTTAGCAACTGTTTTGCCATATACATTTACCTTTTAAGAGGAGGAAT
Second: CGACATGTCCCGCTTCTTTCATTATTCCGTTAGCAACTGTTTTGCGATATACATTTACCTTTTAAGAGGAGGAAT
The “cleaved RNA product abundance” value of the first is lower: 0.346 for the first, 0.52 for the second.

Compared with “CGACATGTCCCGCTTCTTTCATTATTCCGTTAGCAACTGTTTTGCTAAATACATTTACCTTTTAAGAGGAGGAAT”, “CGACATGTCCCGCTTCTTTCATTATTCCGTTAGCAACTGTTTTGCTACATACATTTACCTTTTAAGAGGAGGAAT” is lower in “cleaved RNA product abundance” value: 0.93 for the first, 0.626 for the second.

Going from “CGACATGTCCCGCTTCTTTCATTATTCCGTTAGCAACTGTTTTGCTATAAACAGTTACCTTTTAAGAGGAGGAAT” to “CGACATGTCCCGCTTCTTTCATTATTCCGTTAGCAACTGTTTTGCTATAAACATTTACCTTTTAAGAGGAGGAAT”, the “cleaved RNA product abundance” value rises from 0.0919 to 0.851.

Going from “CGACATGTCCCGCTTCTTTCATTATTCCGTTAGCAACTGTTTTGCTATACACATTTACCTTTTAAGAGGAGGAAT” to “CGACATGTCCCGCTTCTTTCATTATTCCGTTAGCAACTGTTTTGCTATAGACATTTACCTTTTAAGAGGAGGAAT”, the “cleaved RNA product abundance” value rises from 0.807 to 0.917.

Going from “CGACATGTCCCGCTTCTTTCATTATTCCGTTAGCAACTGTTTTGCTATATAAATTTACCTTTTAAGAGGAGGAAT” to “CGACATGTCCCGCTTCTTTCATTATTCCGTTAGCAACTGTTTTGCTATATACAATTACCTTTTAAGAGGAGGAAT”, the “cleaved RNA product abundance” value rises from 0.753 to 1.31.

First: CGACATGTCCCGCTTCTTTCATTATTCCGTTAGCAACTGTTTTGCTATATACACTTACCTTTTAAGAGGAGGAAT
Second: CGACATGTCCCGCTTCTTTCATTATTCCGTTAGCAACTGTTTTGCTATATACAGTTACCTTTTAAGAGGAGGAAT
The “cleaved RNA product abundance” value of the first is higher: 1.07 for the first, 0.649 for the second.

Compared with “CGACATGTCCCGCTTCTTTCATTATTCCGTTAGCAACTGTTTTGCTATATACATATACCTTTTAAGAGGAGGAAT”, “CGACATGTCCCGCTTCTTTCATTATTCCGTTAGCAACTGTTTTGCTATATACATCTACCTTTTAAGAGGAGGAAT” is lower in “cleaved RNA product abundance” value: 1.59 for the first, 1.15 for the second.

First: CGACATGTCCCGCTTCTTTCATTATTCCGTTAGCAACTGTTTTGCTATATACATTAACATTTTAAGAGGAGGAAT
Second: CGACATGTCCCGCTTCTTTCATTATTCCGTTAGCAACTGTTTTGCTATATACATTAACCTTTTAAGAGGAGGAAT
The “cleaved RNA product abundance” value of the first is higher: 2.49 for the first, 1.44 for the second.

Going from “CGACATGTCCCGCTTCTTTCATTATTCCGTTAGCAACTGTTTTGCTATATACATTCACCTTTTAAGAGGAGGAAT” to “CGACATGTCCCGCTTCTTTCATTATTCCGTTAGCAACTGTTTTGCTATATACATTGACCTTTTAAGAGGAGGAAT”, the “cleaved RNA product abundance” value rises from 1.3 to 1.55.

First: CGACATGTCCCGCTTCTTTCATTATTCCGTTAGCAACTGTTTTGCTATATACATTTAACTTTTAAGAGGAGGAAT
Second: CGACATGTCCCGCTTCTTTCATTATTCCGTTAGCAACTGTTTTGCTATATACATTTACATTTTAAGAGGAGGAAT
The “cleaved RNA product abundance” value of the first is lower: 1.71 for the first, 1.98 for the second.

First: CGACATGTCCCGCTTCTTTCATTATTCCGTTAGCAACTGTTTTGCTATATACATTTACCATTTAAGAGGAGGAAT
Second: CGACATGTCCCGCTTCTTTCATTATTCCGTTAGCAACTGTTTTGCTATATACATTTACCCTTTAAGAGGAGGAAT
The “cleaved RNA product abundance” value of the first is higher: 1.89 for the first, 0.558 for the second.

Going from “CGACATGTCCCGCTTCTTTCATTATTCCGTTAGCAACTGTTTTGCTATATACATTTACCGTTTAAGAGGAGGAAT” to “CGACATGTCCCGCTTCTTTCATTATTCCGTTAGCAACTGTTTTGCTATATACATTTACCTTTTAAGAGGAGGAAT”, the “cleaved RNA product abundance” value rises from 1.18 to 1.42.

Going from “CGACATGTCCCGCTTCTTTCATTATTCCGTTAGCAACTGTTTTGCTATATACATTTACGTTTTAAGAGGAGGAAT” to “CGACATGTCCCGCTTCTTTCATTATTCCGTTAGCAACTGTTTTGCTATATACATTTACTTTTTAAGAGGAGGAAT”, the “cleaved RNA product abundance” value falls from 2.39 to 1.96.

Going from “CGACATGTCCCGCTTCTTTCATTATTCCGTTAGCAACTGTTTTGCTATATACATTTATCTTTTAAGAGGAGGAAT” to “CGACATGTCCCGCTTCTTTCATTATTCCGTTAGCAACTGTTTTGCTATATACATTTCCCTTTTAAGAGGAGGAAT”, the “cleaved RNA product abundance” value falls from 1.8 to 1.01.
